From US20220177587A1, “METHODS AND USES OF VARIANT CD80 FUSION PROTEINS AND RELATED CONSTRUCTS” (Alpine Immune Sciences, Inc., priority 2018, published 2022)
Where no end group is shown, it is not given here.

Key:
huCTLA4 = huCTLA4 (Homo sapiens, UniProt P16410); assay: Flow binding to CHO cells stably expressing CTLA4; design: huCTLA4 and huPD-L1, full-length mammalian surface expression constructs were generated; expressed in transfected cells; host or cells: CHO cells, lentiviral transduction, sorted to >98% purity; settings: for CTLA4 MFI at 33.3 nM: CHO cells stably expressing CTLA4
Sequence of huCTLA4 (P16410 36-223): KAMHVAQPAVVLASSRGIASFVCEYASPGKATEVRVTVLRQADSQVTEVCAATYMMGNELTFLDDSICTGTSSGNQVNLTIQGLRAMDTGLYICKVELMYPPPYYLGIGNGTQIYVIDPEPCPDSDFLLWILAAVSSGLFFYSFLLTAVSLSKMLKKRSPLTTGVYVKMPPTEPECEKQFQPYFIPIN
Description: (§1) Binding of selected immunomodulatory fusion proteins to cognate binding partners was assessed. […] Cells were sorted in a Bio-Rad S3 Cell Sorter (Bio-Rad Corp., USA) to >98% purity. Jurkat/IL2 reporter cells, which endogenously express CD28, were used to detect binding to CD28.
(§2) For staining and analysis by flow cytometry, 100,000 cells of appropriate transfected cells were plated in 96-well round bottom plates. Cells were spun down and resuspended in staining buffer (phosphate buffered saline (PBS), 1% bovine serum albumin (BSA), and 0.1% sodium azide) for 20 minutes to block non-specific binding. […] Primary staining was performed on ice for 45 minutes, before washing cells in staining buffer twice. Phycoerythrin (PE)-conjugated anti-human Fc (Jackson ImmunoResearch, USA) was diluted 1:150, added to cells and incubated another 30 minutes on ice. Cells were then washed twice with 150 μL/well stain buffer, fixed in 2% formaldehyde/PBS, and analyzed on Intellicyt flow cytometer (Intellicyt Corp., USA). PE Mean Fluorescence Intensity (MFI) was calculated for each cell type with FlowJo Version 10 software (FlowJo LLC, USA).
(§3) Binding assays were carried out to assess the specificity and affinity of multivalent proteins to cell-expressed CTLA-4, CD28, and PD-L1 counter structures.
(§4) The EC50 for binding also was determined.

huPD-L1 = huPD-L1 (Homo sapiens, UniProt Q9NZQ7); assay: Flow binding to CHO cells stably expressing PD-L1; design: huCTLA4 and huPD-L1, full-length mammalian surface expression constructs were generated; expressed in transfected cells; host or cells: CHO cells, lentiviral transduction, sorted to >98% purity; settings: for PD-L1 MFI at 33.3 nM: CHO cells stably expressing PD-L1; for PD-L1 Fold change to WT CD80: MFI at 33.3 nM relative to CD80 WT IgV-Fc
Sequence of huPD-L1 (Q9NZQ7 19-290): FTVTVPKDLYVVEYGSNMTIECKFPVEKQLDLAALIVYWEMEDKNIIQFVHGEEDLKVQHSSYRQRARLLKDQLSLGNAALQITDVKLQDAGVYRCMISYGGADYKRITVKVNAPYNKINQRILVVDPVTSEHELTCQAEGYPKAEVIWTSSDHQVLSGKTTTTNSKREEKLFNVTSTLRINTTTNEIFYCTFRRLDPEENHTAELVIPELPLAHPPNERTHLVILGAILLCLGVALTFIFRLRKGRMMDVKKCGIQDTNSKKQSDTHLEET
Description: as §1, §2, §3, §4

CD28 [1] = biological target: T1, CD28 (Homo sapiens, UniProt P10747); assay: Jurkat/IL2 + CHO/OKT3 +/- PD-L1 reporter assay: PD-L1-dependent CD28 costimulation; assay type: cell-based; design: host or cells: Jurkat cells expressing an IL-2-luciferase reporter
Description: Jurkat cells were then plated at 50 μL/well for a total of 100,000 cells per well.
To each well, 25 μL of test protein was added to the Jurkat cells. […] The Jurkat cells with test or control proteins were incubated for 15 minutes at room temperature. CHO-derived artificial antigen presenting cells (aAPC) displaying transduced cell surface anti-CD3 single chain Fv (OKT3) (i.e., no PD-L1), or OKT3 and PD-L1 (i.e., +PD-L1), were brought to 0.8×10^6 cells/mL, and 25 μL of cells were added to each well, bringing the final volume of each well to 100 μL. […] Jurkat cells and CHO cells were incubated for 5 hours at 37 degrees Celsius in a humidified 5% CO2 incubation chamber. Plates were then removed from the incubator and acclimated to room temperature for 15 minutes. 100 μL of a cell lysis and luciferase substrate solution (BioGlo luciferase reagent, Promega) were added to each well and the plates were incubated on an orbital shaker for 10 minutes. Luminescence was measured with a 1 second per well integration time using a BioTek Cytation luminometer, and a relative luminescence value (RLU) was determined for each test sample.

CD28 [2] = biological target: T1, CD28; assay: Flow binding to Jurkat/IL2 reporter cells (CD28); design: host or cells: Jurkat cells expressing an IL-2-luciferase reporter; settings: for CD28 Fold change to WT CD80: MFI at 33.3 nM relative to CD80 WT IgV-Fc
Description: as §1, §2, §3, §4

[3] = Table E20, MFI at 33.3 nM relative to CD80 WT IgV-Fc
[4] = Table E20, ratio of MFI at 33.3 nM
[5] = Table E22, Jurkat/IL2 + CHO/OKT3/PD-L1, 5.0 nM
[6] = Table E22, Jurkat/IL2 + CHO/OKT3/PD-L1, CD80 Conc 5.0 nM
[7] = Table E20, Jurkats (CD28), 33.3 nM
[8] = Table E23, CD80 IgV-Fc (inert) at 33.3 nM
[9] = Table E23, MFI at 33.3 nM relative to CD80 WT IgV-Fc
[10] = Table E23, ratio of MFI at 33.3 nM
[11] = Table E24, Jurkat/IL2 + CHO/OKT3/PD-L1, 5.0 nM
[12] = Table E23, CD80 IgV-Fc (inert) at 33.3 nM, Jurkat (CD28)
[13] = Table E14, 33.3 nM, listed as CD80 WT IgV-Fc = 1.0
[14] = Table E15, CHO/OKT3/PD-L1, 5.0 nM

| Substance | CTLA4 MFI at 33.3 nM (huCTLA4; Table E20, 33.3 nM) | CTLA4 Fold change to WT CD80 (huCTLA4; [3]) | PD-L1 MFI at 33.3 nM (huPD-L1; Table E20, 33.3 nM) | PD-L1 Fold change to WT CD80 (huPD-L1; Table E20) | Ratio of PDL1:CD28 (huPD-L1; [4]) | Fold Increase over WT CD80-IgV-Fe (CD28 [1]; [5]) | Relative Luciferase Units (RLU), CD80 Conc 5.0 nM (CD28 [1]; [6]) | CD28 MFI at 33.3 nM (CD28 [2]; [7]) | CD28 Fold change to WT CD80 (CD28 [2]; Table E20) | also measured |
| --- | --- | --- | --- | --- | --- | --- | --- | --- | --- | --- |
| H18Y/A26E/M47L/V68M/A71G/D90G | 121 | 0.1 fold | 31716 | 727.4 fold | 12.4 | 2.19 fold | 853 RLU | 2556 | 58.2 fold | – |
| H18Y/A26E/M47L/V68M/D90G | 28649 | 21.1 fold | 23594 | 541.1 fold | 737.3 | 2.76 fold | 1075 RLU | 32 | 0.7 fold | – |
| H18Y/A26E/V68M/A71G/D90G | 18305 | 13.5 fold | 27872 | 639.3 fold | 10.4 | 2.50 fold | 974 RLU | 2683 | 61.1 fold | – |
| H18Y/A26Q/E35D/M47T/V68M/A71G/D90G | – | – | – | – | – | – | – | – | – | CTLA4 MFI at 33.3 nM (huCTLA4; [8]): 16652; CTLA4 Fold change to WT CD80 (huCTLA4; [9]): 12.0; PD-L1 MFI at 33.3 nM (huPD-L1; [8]): 24450; PD-L1 Fold change to WT CD80 (huPD-L1; Table E23): 148.2; Ratio of PDL1:CD28 (huPD-L1; [10]): 3.6; Fold Increase over WT CD80-IgV-Fe (CD28 [1]; [11]): 5.8; Relative Luciferase Units (RLU), CD80 Conc 5.0 nM (CD28 [1]; [11]): 994 RLU; CD28 MFI at 33.3 nM (CD28 [2]; [12]): 6733; CD28 Fold change to WT CD80 (CD28 [2]; Table E23): 66.0 |
| H18Y/E35D/M47L/V68M/A71G | 23667 | 17.4 fold | 30377 | 696.7 fold | 32.7 | 2.19 fold | 853 RLU | 928 | 21.1 fold | – |
| H18Y/E35D/M47V/V68M/A71G/D90G | – | – | – | – | – | – | – | – | – | CTLA4 MFI at 33.3 nM (huCTLA4; [8]): 17165; CTLA4 Fold change to WT CD80 (huCTLA4; [9]): 12.4; PD-L1 MFI at 33.3 nM (huPD-L1; [8]): 52151; PD-L1 Fold change to WT CD80 (huPD-L1; Table E23): 316.1; Ratio of PDL1:CD28 (huPD-L1; [10]): 7.7; Fold Increase over WT CD80-IgV-Fe (CD28 [1]; [11]): 4.8; Relative Luciferase Units (RLU), CD80 Conc 5.0 nM (CD28 [1]; [11]): 825 RLU; CD28 MFI at 33.3 nM (CD28 [2]; [12]): 6792; CD28 Fold change to WT CD80 (CD28 [2]; Table E23): 66.6 |
| deltaE10-A98: variant CD80 IgV-Fc, IgV SEQ ID NO:545 (VIHVTKEVKEVTLSVKAD; not fully specified) | – | – | – | – | – | – | – | – | – | CTLA4 Fold change to WT CD80 (huCTLA4; [13]): 0.1; CTLA4 MFI at 33.3 nM (huCTLA4; Table E14, 33.3 nM): 125; PD-L1 Fold change to WT (huPD-L1; [13]): 0.5; PD-L1 MFI at 33.3 nM (huPD-L1; Table E14, 33.3 nM): 45; Ratio of PDL1:CD28 (huPD-L1; Table E14, MFI at 33.3 nM): 3; Fold Increase over WT CD80-IgV-Fe (CD28 [1]; [14]): 0.3; Relative Luciferase Units (RLU), CD80-Fe Cone 5.0 nM (CD28 [1]; [14]): 137 RLU; CD28 Fold change to WT (CD28 [2]; [13]): 0.4; CD28 MFI at 33.3 nM (CD28 [2]; Table E14, Jurkats (CD28), 33.3 nM): 15 |
